Measured values: patent US20080201790A1 (published 2008)

B1: MEKK4 from a Cos cell transient transfection (enzyme)
chain: MRDAIAEPVPPPALADTPAAAMEELRPAPPPQPEPDPECCPAARQECMLGESARKSMESDPEDFSDETNTETLYGTSPPSTPRQMKRLSAKHQRNSAGRPASRSNLKEKMNTPSQSPHKDLGKGVETVEEYSYKQEKKIRATLRTTERDHKKNAQCSFMLDSVAGSLPKKSIPDVDLNKPYLSLGCSNAKLPVSMPMPIARTARQTSRTDCPADRLKFFETLRLLLKLTSVSKKKDREQRGQENTAAFWFNRSNELIWLELQAWHAGRTINDQDLFLYTARQAIPDIINEILTFKVNYGSIAFSSNGAGFNGPLVEGQCRTPQETNRVGCSSYHEHLQRQRVSFEQVKRIMELLEYMEALYPSLQALQKDYERYAAKDFEDRVQALCLWLNITKDLNQKLRIMGTVLGIKNLSDIGWPVFEIPSPRPSKGYEPEDEVEDTEVELRELESGTEESDEEPTPSPRVPELRLSTDTILDSRSQGCVSRKLERLESEEDSIGWGTADCGPEASRHCLTSIYRPFVDKALKQMGLRKLILRLHKLMNGSLQRARVALVKDDRPVEFSDFPGPMWGSDYVQLSGTPPSSEQKCSAVSWEELRAMDLPSFEPAFLVLCRVLLNVIHECLKLRLEQRPAGEPSLLSIKQLVRECKEVLKGGLLMKQYYQFMLQEVLGGLEKTDCNMDAFEEDLQKMLMVYFDYMRSWIQMLQQLPQASHSLKNLLEEEWNFTKEITHYIRGGEAQAGKLFCDIAGMLLKSTGSFLESGLQESCAELWTSADDNGAADELRRSVIEISRALKELFHEARERASKALGFAKMLRKDLEIAAEFVLSASARELLDALKAKQYVKVQIPGLENLHVFVPDSLAEEKKIILQLLNAATGKDCSKDPDDVFMDAFLLLTKHGDRARDSEDGWGTWEARAVKIVPQVETVDTLRSMQVDNLLLVVMESAHLVLQRKAFQQSIEGLMTVRHEQTSSQPIIAKGLQQLKNDALELCNRISDAIDRVDHMFTLEFDAEVEESESATLQQYYREAMIQGYNFGFEYHKEVVRLMSGEFRQKIGDKYISFAQKWMNYVLTKCESGRGTRPRWATQGFDFLQAIEPAFISALPEDDFLSLQALMNECIGHVIGKPHSPVTAIHRNSPRPVKVPRCHSDPPNPHLIIPTPEGFSTRSVPSDARTHGNSVAAAAAVRAAATTAAGRPGPGGGDSVPAKPVNTAPDTRGSSVPENDRLASIAAELQFRSLSRHSSPTEERDEPAYPRSDSSGSTRRSWELRTLISQTKDSASKQGPIEAIQKSVRLFEERRYREMRRKNIIGQVCDTPKSYDNVMHVGLRKVTFKWQRGNKIGEGQYGKVYTCISVDTGELMAMKEIRFQPNDHKTIKETADELKIFEGIKHPNLVRYFGVELHREEMYIFMEYCDEGTLEEVSRLGLQEHVIRLYTKQITVAINVLHEHGIVHRDIKGANIFLTSSGLIKLGDFGCSVKLKNNAQTMPGEVNSTLGTAAYMAPEVITRAKGEGHGRAADIWSLGCVVIEMVTGKRPWHEYEHNFQIMYKVGMGHKPPIPERLSPEGKAFLSHCLESDPKIRWTASQLLDHAFVKVCTDEE
notes: also called MEKK4.2
B2: recombinant MEKK4 protein expressed in E. coli, residues 1261-1597 of the full length protein (enzyme)
chain: RRSWELRTLISQTKDSASKQGPIEAIQKSVRLFEERRYREMRRKNIIGQVCDTPKSYDNVMHVGLRKVTFKWQRGNKIGEGQYGKVYTCISVDTGELMAMKEIRFQPNDHKTIKETADELKIFEGIKHPNLVRYFGVELHREEMYIFMEYCDEGTLEEVSRLGLQEHVIRLYTKQITVAINVLHEHGIVHRDIKGANIFLTSSGLIKLGDFGCSVKLKNNAQTMPGEVNSTLGTAAYMAPEVITRAKGEGHGRAADIWSLGCVVIEMVTGKRPWHEYEHNFQIMYKVGMGHKPPIPERLSPEGKAFLSHCLESDPKIRWTASQLLDHAFVKVCTDEE
notes: No tag is stated; also called truncated recombinant MEKK4

Experiments:
Assay in all cases: GST fusion pull-down on glutathione-Sepharose, anti-MEKK4 immunoblot
[1] = target: T1, GST-Cdc42 (GDP bound) on glutathione-Sepharose (UniProt P60953 1-191)
T1 construct: Loaded with GDP; not shown: glutathione S-transferase fusion partner
Experimental: (§1) Each GST fusion protein had GTPγs or GDP bound to the Cdc42, Rac or Ras moiety of the fusion protein. Following the incubation the beads were washed extensively and the bound proteins removed in SDS-Laemmli buffer and resolved by SDS-PAGE using 10% acrylamide gels.

[2] = target: T2, GST-Rac (GDP bound) on glutathione-Sepharose (UniProt P08515 1-218 = GST)
T2 construct: Loaded with GDP
Experimental: as §1

[3] = target: T3, GST fusion protein of Ha-Ras (GTPγS bound) on glutathione-Sepharose (UniProt P08515 1-218 = GST; P01112 1-189)
T3 construct: also called GST-Ras
Experimental: as §1

[4] = target: T4, GST fusion protein of Ha-Ras (GDP bound) on glutathione-Sepharose (UniProt P08515 1-218 = GST; P01112 1-189)
T4 construct: also called GST-Ras
Experimental: as §1

T1 sequence (P60953 whole entry, the tested form may be a part): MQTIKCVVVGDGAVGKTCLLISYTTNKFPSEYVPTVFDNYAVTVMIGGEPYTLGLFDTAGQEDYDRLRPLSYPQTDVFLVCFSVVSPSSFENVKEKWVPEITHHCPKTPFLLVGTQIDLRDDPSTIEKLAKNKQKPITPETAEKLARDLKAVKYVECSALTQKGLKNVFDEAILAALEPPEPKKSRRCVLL
T2 sequence (P08515 whole entry): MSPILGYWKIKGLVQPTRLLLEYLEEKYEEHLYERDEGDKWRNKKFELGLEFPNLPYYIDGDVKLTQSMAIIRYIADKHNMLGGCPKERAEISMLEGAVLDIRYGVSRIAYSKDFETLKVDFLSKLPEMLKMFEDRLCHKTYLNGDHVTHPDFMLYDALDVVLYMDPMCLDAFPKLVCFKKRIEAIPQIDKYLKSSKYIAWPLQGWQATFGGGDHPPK
T3 sequence (P08515 1-218, tags or fused parts left off): as the sequence (P08515 whole entry) above
T4 sequence (P08515 1-218, tags or fused parts left off): as the sequence (P08515 whole entry) above

Binder | percent of the MEKK4 bound in the presence of GTPγS [1] [%] | percent of the MEKK4 bound in the presence of GTPγS [2] [%] | binding result [3] | binding result [4]
B1 | < 10 | < 10 |  | 
B2 | < 10 | < 10 | no binding | no binding
